# Tested on: LARP1 C-terminal fragment (extended DM15) WT (Homo sapiens)
# Test: EMSA
# Conditions: m7Gppp cap; EMSA: 20 mM Tris-HCl pH 8, 150 mM NaCl, 10% glycerol, 1 mM DTT, 0.5 ug tRNA, 1 ug BSA in 10 ul; on ice 30 min; 7-8% native 0.5x TBE gel at 4 C; RNA <=200 pM
substance,measurement,value
m7G-RPS6-UTR (capped RPS6 20-mer),Kd,153 nM

# Source: publication PMC8034618
